According to publication PMC3195669 (Biologics : Targets & Therapy, 2011):

Molecular target: the molecule itself
Experiment: SDS-PAGE without heat denaturation or reducing agent

B1: recombinant mouse full-length adiponectin subfractions, unlabeled (natural protein, UniProt Q60994 18-247, looked up)
chain: EDDVTTTEELAPALVPPPKGTCAGWMAGIPGHPGHNGTPGRDGRDGTPGEKGEKGDAGLLGPKGETGDVGMTGAEGPRGFPGTPGRKGEPGEAAYVYRSAFSVGLETRVTVPNVPIRFTKIFYNQQNHYDGSTGKFYCNIPGLYYFSYHITVYMKDVKVSLFKKDKAVLFTYDQYQEKNVDQASGSVLLHLEVGDQVWLQVYGDGDHNGLYADNVNDSTFTGFLLYHDTN
- stoichiometry N: 6
